The target of this test is GSK3 binding protein (GBP) on beads (Xenopus). Nature of the test: pull-down.

Where “and” joins values, the source holds several entries; their conditions need not be identical. Equal entries are not always repeated.

The record followed here is article PMC2196183.

B1: dishevelled (dsh), radiolabeled (natural protein)
chain: MAETKVIYHLDEEETPYLVKVPVPATDIRLRDFKAALGRGHAKYFFKAMDQDFGVVKEEISDDNAKLPCFNDRVVSWLASSEGSQPDSAPPAPATEVRPEPPPPVPPPIPPPPAERTSGIGDSRPPSFHPNVSGSTEQLDQDNESVISMRRDRVRRRESSEQAGVGRGVNGRTERHLSGYESSSTLLTSEIETSICDSEEDDTMSRFSSSTEQSSASRLLKRHRRRRKQRPPRLERTSSFSSVTDSTMSLNIITVTLNMEKYNFLGISIVGQSNERGDGGIYIGSIMKGGAVAADGRIEPGDMLLQVNDINFENMSNDDAVRVLRDIVHKPGPIVLTVAKCWDPSPQGYFTLPRNEPIHPIDPAAWVSHSAALSGSFPVYPGSASMSSMTSSTSVTETELSHALPPVSLFSLSVHTDLASVVKVMASPESGLEVRDRMWLKITIPNAFLGSDVVDWLYHHVEGFQDRREARKFASNLLKAGFIRHTVNKITFSEQCYYIFGDLTGCENYMTNLSLNDNDGSSGASDQDTLAPLPLPGASPWPLLPTFSYQYQAPHPYSTQPPAYHELSSYSYGMGSAGSQHSEGSRSSGSNRSDGGRGMQKDDRSGVAGVGGGDSKSGSGSESEYSTRSSIRRVGGGEAGPPSERSTSSRLPPHHPPSVHSYAAPGVPLSYNPMMLMMMPPPPLPPPGVCPPNSSVPPGAPPLVRDLASVPPELTATRQSFHMAMGNPSEFFVDVM
modifications: [35S]methionine label
On to B1, for which the fold increase in binding with 1 μM CK1ε against buffer- or GSK3-treated extracts was 4 fold and 5 fold.
